PMC8998557, “A Novel Family of Winged-Helix Single-Stranded DNA-Binding Proteins from Archaea”

Columns and labels:
[1] = target: T1, Sul7s (Sulfolobus islandicus Rey15A, UniProt F0NBY5 1-59); assay: BLI; BLI: 50 mM Tris-Cl pH 7.5, 100 mM NaCl, 1 mM EDTA, 0.02% Tween-20, 30 C; NMR: 20 mM potassium phosphate pH 7.0, 30 mM NaCl, 0.02% NaN3, 298 K; conditions: protein: recombinant, tags: untagged
T1 sequence: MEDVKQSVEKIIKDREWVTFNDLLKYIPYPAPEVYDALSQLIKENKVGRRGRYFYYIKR

[2] = target: T2, Sul7s N21A (Sulfolobus islandicus Rey15A, UniProt F0NBY5 1-59, N21A); assay: as above; conditions: protein: recombinant; tags: untagged; label: 5'-biotin
T2 sequence: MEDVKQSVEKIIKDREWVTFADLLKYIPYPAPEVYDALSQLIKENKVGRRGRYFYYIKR

[3] = target: T3, Sul7s K43A (Sulfolobus islandicus Rey15A, UniProt F0NBY5 1-59, K43A); assay: as above; conditions: protein: recombinant; tags: untagged; label: 5'-biotin
T3 sequence: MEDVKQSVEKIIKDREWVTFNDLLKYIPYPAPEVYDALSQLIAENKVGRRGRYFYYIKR

[4] = target: T4, Sul7s Y56A (Sulfolobus islandicus Rey15A, UniProt F0NBY5 1-59, Y56A); assay: as above; conditions: protein: recombinant; tags: untagged; label: 5'-biotin
T4 sequence: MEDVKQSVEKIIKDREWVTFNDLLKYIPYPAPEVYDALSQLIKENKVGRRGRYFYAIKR

[5] = target: T5, Sul7s T19G (Sulfolobus islandicus Rey15A, UniProt F0NBY5 1-59, T19G); assay: as above; conditions: protein: recombinant; tags: untagged; label: 5'-biotin
T5 sequence: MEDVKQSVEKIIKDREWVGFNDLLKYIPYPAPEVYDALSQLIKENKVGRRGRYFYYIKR

[6] = target: T6, Sul7s E33A (Sulfolobus islandicus Rey15A, UniProt F0NBY5 1-59, E33A); assay: as above; conditions: protein: recombinant; tags: untagged; label: 5'-biotin
T6 sequence: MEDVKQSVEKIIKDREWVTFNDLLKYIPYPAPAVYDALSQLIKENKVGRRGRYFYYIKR

[7] = target: T7, Sul7s K58A (Sulfolobus islandicus Rey15A, UniProt F0NBY5 1-59, K58A); assay: as above; conditions: protein: recombinant; tags: untagged; label: 5'-biotin
T7 sequence: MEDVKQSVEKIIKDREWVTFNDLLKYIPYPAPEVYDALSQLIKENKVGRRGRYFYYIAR

[8] = target: T8, Sul7s W17A (Sulfolobus islandicus Rey15A, UniProt F0NBY5 1-59, W17A); assay: as above; conditions: protein: recombinant; tags: untagged; label: 5'-biotin
T8 sequence: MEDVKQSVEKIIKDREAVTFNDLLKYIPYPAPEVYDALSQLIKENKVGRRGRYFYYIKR

[9] = target: T9, Sul7s R15A (Sulfolobus islandicus Rey15A, UniProt F0NBY5 1-59, R15A); assay: as above; conditions: protein: recombinant; tags: untagged; label: 5'-biotin
T9 sequence: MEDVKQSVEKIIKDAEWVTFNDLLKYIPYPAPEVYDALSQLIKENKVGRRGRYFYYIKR

[10] = target: T10, Sul7s K13A (Sulfolobus islandicus Rey15A, UniProt F0NBY5 1-59, K13A); assay: as above; conditions: protein: recombinant; tags: untagged; label: 5'-biotin
T10 sequence: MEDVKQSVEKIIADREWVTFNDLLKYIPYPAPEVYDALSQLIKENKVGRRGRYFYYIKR

[11] = target: T11, Sul7s D3A (Sulfolobus islandicus Rey15A, UniProt F0NBY5 1-59, D3A); assay: as above; conditions: protein: recombinant; tags: untagged; label: 5'-biotin
T11 sequence: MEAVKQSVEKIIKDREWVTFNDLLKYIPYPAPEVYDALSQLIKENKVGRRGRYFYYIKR

[12] = target: T12, Sul7s D36A (Sulfolobus islandicus Rey15A, UniProt F0NBY5 1-59, D36A); assay: BLI; text calls decrease marginal, in conflict with table value; BLI: 50 mM Tris-Cl pH 7.5, 100 mM NaCl, 1 mM EDTA, 0.02% Tween-20, 30 C; NMR: 20 mM potassium phosphate pH 7.0, 30 mM NaCl, 0.02% NaN3, 298 K; conditions: protein: recombinant; tags: untagged; label: 5'-biotin
T12 sequence: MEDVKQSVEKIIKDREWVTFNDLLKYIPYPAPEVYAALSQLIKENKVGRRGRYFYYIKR

[13] = target: T13, Sul7s R59A (Sulfolobus islandicus Rey15A, UniProt F0NBY5 1-59, R59A); assay: BLI; barely detected up to 80 uM protein; BLI: 50 mM Tris-Cl pH 7.5, 100 mM NaCl, 1 mM EDTA, 0.02% Tween-20, 30 C; NMR: 20 mM potassium phosphate pH 7.0, 30 mM NaCl, 0.02% NaN3, 298 K; conditions: protein: recombinant; tags: untagged; label: 5'-biotin
T13 sequence: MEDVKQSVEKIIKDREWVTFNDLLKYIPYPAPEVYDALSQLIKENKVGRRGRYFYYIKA

[14] = target: T14, Sul7s R49A (Sulfolobus islandicus Rey15A, UniProt F0NBY5 1-59, R49A); assay: as above; conditions: protein: recombinant; tags: untagged; label: 5'-biotin
T14 sequence: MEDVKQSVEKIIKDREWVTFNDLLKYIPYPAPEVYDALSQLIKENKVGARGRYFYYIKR

[15] = target: T15, Sul7s R52A (Sulfolobus islandicus Rey15A, UniProt F0NBY5 1-59, R52A); assay: as above; conditions: protein: recombinant; tags: untagged; label: 5'-biotin
T15 sequence: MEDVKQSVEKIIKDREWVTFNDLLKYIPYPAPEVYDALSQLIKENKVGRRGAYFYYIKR

[16] = target: T1, Sul7s; assay: NMR; 0.7 mM 15N/13C protein, HSQC titration; BLI: 50 mM Tris-Cl pH 7.5, 100 mM NaCl, 1 mM EDTA, 0.02% Tween-20, 30 C; NMR: 20 mM potassium phosphate pH 7.0, 30 mM NaCl, 0.02% NaN3, 298 K; conditions: protein: recombinant; tags: untagged

CTGGGGGCTGGGGGCTGGGGGCTGGGGGCT (ssDNA) [G-rich30]
Kd ([1]; label: 5'-biotin): 17.5 ± 4.8 µM

TTTCTACCCTTTGGTGCTAATGCCCATACT (ssDNA) [S30 (S30-F)]
Kd [2]: 8.92 µM | Kd [3]: 27.9 µM | Kd [4]: 15.6 µM | Kd [5]: 14.1 µM | Kd [6]: 1.21 µM | Kd [7]: 26.9 µM | Kd ([1]; label: 5'-biotin): 5.62 ± 0.95 µM | Kd [8]: 10.7 µM | Kd [9]: 4.67 µM | Kd [10]: 30.4 µM | Kd [11]: 6.01 µM | Kd [12]: 88.3 µM | binding result [13]: no binding | binding result [14]: no binding | binding result [15]: no binding

B1: D30 (dsDNA)
DNA 1: TTTCTACCCTTTGGTGCTAATGCCCATACT
DNA 2: AGTATGGGCATTAGCACCAAAGGGTAGAAA
Kd ([1]; label: 5'-biotin on strand 1, blunt): 76.8 ± 16.9 µM

GTAGTCAGACACAGTAGTTC (ssDNA) [S20-F]
binding result [16]: binds

TTTTTTTTTTTTTTTTTTTTTTTTTTTTTT (ssDNA) [T30]
Kd ([1]; label: 5'-biotin): 1.19 ± 0.3 µM
